Measurements from patent WO2023190851A1.

What follows are substances tested against SARS-CoV-2 Spike RBD, His Tag (B.1.1.529/Omicron) (SARS-CoV-2, Omicron B.1.1.529 (BA.1) lineage) (UniProt P0DTC2).

| Substance | binding inhibition rate (%) at 2 μg/ml [%] |
| --- | --- |
| ADG2 (antibody) | < 30 |
| AZD1061 (antibody) | < 30 |
| AZD8895 (antibody) | < 30 |
| LY_CoV16 (antibody) | < 30 |
| LY_CoV555 (antibody) | < 30 |
| REGN10933 (antibody) | < 30 |
| REGN10987 (antibody) | < 30 |
| S309 (antibody) | < 30 |
